± gives the half width of the 95% confidence interval.
Columns and labels:
[1] = folding stability dG unfold from trypsin proteolysis; higher = more stable
How it was run: (§1)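 Designed mini-proteins (under 80 residues, no cysteine) in a PA-tagged cDNA display construct were digested with trypsin and chymotrypsin. Each protease was used at 11 concentrations (threefold dilutions) plus a no-protease condition, followed by sequencing. K50 was inferred by Bayesian fitting of sequencing counts, and unfolding free energy was derived against a sequence-predicted unfolded-state K50 and a shared folded-state K50, per protease or combined. Only designs with AlphaFold2 dimer inter-PAE above 15 were kept.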

[2] = folding stability dG unfold from chymotrypsin proteolysis; higher = more stable
How it was run: as §1

[3] = folding stability dG unfold (combined trypsin and chymotrypsin); higher = more stable
How it was run: as §1

| Sequence | folding stability dG unfold [1] [kJ/mol] | folding stability dG unfold [2] [kJ/mol] | folding stability dG unfold [3] [kJ/mol] |
| --- | --- | --- | --- |
| SAGGKEFIEKLGNNATIEIDTPNGGKVKINLKIEKVKPGKYVIKGEVTVYNPNTNKPVKFPYTLTIESAGGS [r8_473_TrMRF] | 9.99 ± 0.837 | 15.7 ± 0.318 | 13.1 ± 0.753 |
| SAGGKEIYKVNKKDFKKILDYLKKKKNAKITIIIKNKPIEIPIKDLEENYKKIKGKPNEPFYLEIEYSAGGS [r16_377_TrMRF] | 7.33 ± 0.364 | 9.53 ± 0.142 | 8.97 ± 0.322 |
| SAGGKEKIILIPAKDKEKVLELLKALADEGKTVRIINLKTGKVEEVTVDELLALAEKTNEPILIEVESAGGS [r16_263_TrROS_Hall] | 15.4 ± 0.753 | 12.5 ± 0.46 | 14 ± 0.879 |
| SAGGKEKYKVIEIKVKPEDVTAEELQAELEKKGYEIYVDGKKIKPGESVEDLLAKNPNATLTIVVKESAGGS [r8_38_TrROS_Hall] | 3.87 ± 0.711 | 8.1 ± 0.46 | 7.16 ± 0.837 |
| SAGGKEVKIKIETKTLPNGVKVVKMTVELPDGKTVEMVMVENKKTGKMVMFEVKLDKNGKIVEIKAFPSAGG [r13_323_TrROS_Hall] | 11.1 ± 0.669 | 14.4 ± 0.669 | 13.9 ± 1.72 |
| SAGGKEVKITIEYDEETKEVRVTIEKDGKEITVTMTAEELKKLLEELEKLPPVVVKDKDGKEKVVLLSAGGS [r8_332_TrROS_Hall] | 4.77 ± 0.155 | -1.98 ± 1.09 | 2.91 ± 0.544 |
| SAGGKEVKVIRITMSRDQLRDLIEKLFGKPLSLEEILKKLPPGAKVEIRVEENENGEVTVEIVIVKKPSAGG [r13_869_TrROS_Hall] | 13.4 ± 0.962 | 17.3 ± 0.46 | 16.7 ± 1.09 |
| SAGGKEVYKVEIEVRLVKVPPGATVTLEEENGELTLTVTAPPGEEVLVIRIKVEKVKLPKPEKKKKKKSAGG [r13_804_TrROS_Hall] | 9.28 ± 1.13 | 14.4 ± 0.753 | 11.7 ± 1.88 |
| SAGGKIEEILKKLNLKPGEKAKIKDIKIEVKTVTVTEKKYKNGKLVEEKEKTVTVVKIEIKIELEKPKSAGG [r13_482_TrROS_Hall] | 10.9 ± 0.753 | 16.6 ± 0.753 | 13.5 ± 1.09 |
| SAGGKIEELAKEIAQEHNIKSVDVQTTGGYPKVNVRFRNPKEGRMYRIKIHVPPDGNIKISIEPQELSAGGS [r16_433_TrROS] | 7.82 ± 0.142 | 8.7 ± 0.544 | 8.02 ± 1.09 |
| SAGGKIEIHPDTLVVRIEVENKDGSTEEITLELKGLTEEELEDLLKELAAQLPDPDVKVKIVEIRRLPSAGG [r13_29_TrROS_Hall] | 11 ± 0.544 | 10.4 ± 0.502 | 10.2 ± 0.544 |
| SAGGKIIEAIKELLKEGKKLSKEEILKKLKEALRKKAEEEGKPIEEIEITSIHFDKETNEVHIEIKPSAGGS [r16_365_TrROS_Hall] | 10.4 ± 0.502 | 11 ± 0.418 | 10.8 ± 0.372 |
| SAGGKIKLSPEALKALEEAIKKGDKNKTIFIELPDGSRIEVLPDGRIKVINKNGEEYELSEIKKIYPSAGGS [r16_664_TrROS_Hall] | 12.5 ± 0.837 | 9.67 ± 0.502 | 10.8 ± 0.92 |
| SAGGKILVPLEVLKEIEEAGLVDEVVENPDGPASLTVTSSKPAKLFGKPVIGFVRRGPDGKPVVEIIPSAGG [r13_163_TrMRF] | -0.9 ± 0.381 | 0.211 ± 0.544 | 0.000509 ± 0.414 |
| SAGGKIPISPEALKALDEALKNGDKGDTIPIQTPDGHYIVITPNGRMRFHNGNEREFPIGKIKAIIWSAGGS [r16_664_TrROS] | -0.624 ± 0.586 | 1.01 ± 0.837 | 0.652 ± 0.502 |
| SAGGKIRIDVQYNKNEGYITIRIRFNGNTREIPIPSPKQSPEDVREEAEEIAKYLQEEYNIKEVEIWSAGGS [r16_249_TrROS] | 8.39 ± 0.285 | 9.81 ± 0.46 | 9.88 ± 0.669 |
| SAGGKITITVEYNKETNTVRIKITTEDGKEKELEINLENLTEEELKKLAEEIAKKLNPEKIKKVEIYPSAGG [r13_267_TrROS_Hall] | 7.09 ± 0.46 | 11.2 ± 0.502 | 9.74 ± 0.544 |
| SAGGKKEKKLTLLFSDPNGKLSLVIEVYKKKDGSYWAVFYNPETGKKEEYKFKSLEELEEAVKELLKKSAGG [r13_857_TrMRF] | 11.7 ± 0.201 | 19.16 ± 0.188 | 17.9 ± 0.322 |
| SAGGKKIEIYKLKDALIIKIPEKGLLILLGNDTAIIFKVKSIKNNGKPKIISSKIISLEEILDLIKSSAGGS [r8_174_TrMRF] | 11.7 ± 0.502 | 15.7 ± 0.197 | 13.9 ± 0.544 |
| SAGGKKIIIVIGSPEEVERLKELFPDEEVITLPREALENPEVLKELIKELEEKGIEVEIIIPPGVKPSAGGS [r8_376_TrROS_Hall] | 16 ± 1.55 | 8.1 ± 1.09 | 15.6 ± 1.84 |
| SAGGKKITITLTVKTPEDALAAARELAEALGLKIKKIKKVEVTYDEENNLVTVKVEIEIEPLPEEELSAGGS [r16_155_TrROS_Hall] | 19.6 ± 1.38 | 17.9 ± 0.418 | 18.4 ± 0.795 |

| Sequence | folding stability dG unfold [1] [kJ/mol] | folding stability dG unfold [2] [kJ/mol] | folding stability dG unfold [3] [kJ/mol] |
| --- | --- | --- | --- |
| SAGGKKITVTVTRERTEDGTLRVTVTLRDEETGRTLTLTLTVPRENEEEVEEAAKRLAEELAADPELESAGG [r13_968_TrROS_Hall] | 11.8 ± 0.268 | 19.8 ± 0.502 | 18.5 ± 0.711 |
| SAGGKKIVIVAPPGMSPEELAELLKKLFPGLEVEVREVSAEELKKLKPGDEVLVIEVDGRLYAVKIKPSAGG [r13_649_TrROS_Hall] | 8.56 ± 0.46 | 15.4 ± 0.586 | 13.4 ± 0.502 |
| SAGGKKKITIEVEKKEDGKEVKVKIKVDGKEIEITFPENMSKEELLEAAKKLAEENNIEIEEVEIYPSAGGS [r16_753_TrROS_Hall] | 5.2 ± 0.418 | 6.43 ± 0.381 | 6.42 ± 0.628 |
| SAGGKKKKIIIVLSKEEAEKKAEELKKELEKKGIEVEEVKVVEGMSEEEVKELAEKEKKPVIVIEPKSAGGS [r16_94_TrROS_Hall] | -0.663 ± 0.322 | 5.33 ± 0.314 | 3.4 ± 0.586 |
| SAGGKKKKKKKIEKKVKTVTIKIKAKTKEEAKKALEELLKKKGLEVEIVKIEYDPETKEITVTVKVKPSAGG [r13_567_TrROS_Hall] | 8.04 ± 0.184 | 9.69 ± 0.502 | 8.97 ± 0.356 |
| SAGGKKKKLKIKIVIVAKSKEEAEKLAKELAEKLKELGIKEVEIEVEVIELPPPPPPPKPDSPEYKKKSAGG [r13_6_TrROS_Hall] | -1.89 ± 1.42 | -0.548 ± 1.51 | 1.56 ± 1.76 |
| SAGGKKKKPERVEVTIVLPPEILEAIKAGKPLTKEEIAKLLGLPPGAEIKIERREDGYLVIKITLPKSAGGS [r16_679_TrROS_Hall] | 6.75 ± 0.126 | 13.3 ± 0.184 | 11.7 ± 0.289 |
| SAGGKKKKVKKVKVEVKVTVTLTIKLPKEKIKSKEEAEALAKKLLEELGIEGAKVKIEEKDGYLTLTFSAGG [r13_130_TrROS_Hall] | 11.1 ± 0.385 | 17.7 ± 0.837 | 16.1 ± 1.63 |
| SAGGKKKPKVKTITITLPKKDIKIGDVITAEEIAKLLGLPKNAKIKVVEVKYDKETGEVTIKIEIYESAGGS [r16_165_TrROS_Hall] | 8.28 ± 0.188 | 13.8 ± 0.418 | 12.4 ± 0.46 |
| SAGGKKKPPKVKIVSIEVEVFKNENGEKFVKVKIKFEKTNKIITITVPPGMTLEELAKKLNIEIEKESAGGS [r16_676_TrROS_Hall] | 6.99 ± 0.201 | 12.7 ± 0.172 | 11.4 ± 0.368 |
| SAGGKKKVKITKITSIDKKNGVITLEIEDPKTKKKYKIKAKVVKLKNGKKLLVIEIEVNGKKIKIVFKSAGG [r13_993_TrROS_Hall] | 10.4 ± 0.628 | 17.7 ± 0.669 | 15.9 ± 1.97 |
| SAGGKKKVTIEIVYDPEEDYVLIRIRIKDPNGNEREITIRMSRDEIKKLLEELKGKITSIEVRRLPPSAGGS [r16_298_TrROS_Hall] | 12.6 ± 0.418 | 13.1 ± 0.247 | 13.1 ± 0.502 |
| SAGGKKVEILEVSVKPVTLGGKKKYYLNVKVKTPDGKVVNVTMPLEVVKSLGFSIEEFAKAVAKTLLSAGGS [r16_625_TrMRF] | 12.4 ± 0.297 | 16.3 ± 0.188 | 15.1 ± 0.23 |
| SAGGKKVIEIEITVKPGETITITVPPGARIEIVDLDTGEVREIEIEPGETITLTLPPGSTLLIRIYEPSAGG [r19_78_TrROS_Hall] | 15.3 ± 1.05 | 16.9 ± 0.46 | 16.8 ± 0.962 |
| SAGGKKVKVEKVATFELEDGSKITITTVTLPNGEKLVLIEITNPNGEKKTIVVSYEDLKEVLEALKKSAGGS [r16_588_TrROS_Hall] | 10.5 ± 0.36 | 11.3 ± 0.669 | 11.1 ± 1.17 |
| SAGGKKVVITLTAEELEELLKEGKPLTAEEIARRLLPPGAKVTVEVTYDPETKEVTVTVVIEVPEELESAGG [r13_862_TrROS_Hall] | 9.51 ± 0.544 | 9.02 ± 0.879 | 9.27 ± 0.502 |
| SAGGKKYKVKVVSVEYDKETKEVTVKVEFEDNKVVVEKKVKVKLPPVKIEFSEEDLKEGKVEIKIEFSAGGS [r16_809_TrROS_Hall] | 6.1 ± 0.46 | 11 ± 0.205 | 9.49 ± 0.418 |
| SAGGKKYYLIKITVKTEKKEYTLPDGSKVTVEKTYELTIIVESKEEAEKLAEELAKKYNLEVEIVPLSAGGS [r8_131_TrROS_Hall] | 12.3 ± 0.544 | 20.2 ± 0.268 | 18.9 ± 0.544 |
| SAGGKLAELKEILKKLGLPKIESIEEDPETGVLRFKASSSKPILVTVPVRSLGDGSRPIEVEIKSTNISAGG [r13_410_JUSTAS] | 0.951 ± 1 | 1.87 ± 1.34 | 1.43 ± 0.753 |
| SAGGKLPKGAKIVSVEFDKETKEIRIKVEFYDKNGKLIKTIEKTIKIKPKPKLSEEEKKKLEEEKKKSAGGS [r16_697_TrROS_Hall] | 4.02 ± 0.753 | 6.11 ± 1.17 | 6.89 ± 0.962 |

From the supplement of paper PMC12764529
